Test results as given in article PMC4916044.

Molecular target: endogenous NFκB2 p100 (mouse (endogenous in NFκB2+/+ MEFs)) (UniProt Q9WTK5)
Experiment: immunodepletion

UniProt Q9WTK5, sequence (Q9WTK5 whole entry): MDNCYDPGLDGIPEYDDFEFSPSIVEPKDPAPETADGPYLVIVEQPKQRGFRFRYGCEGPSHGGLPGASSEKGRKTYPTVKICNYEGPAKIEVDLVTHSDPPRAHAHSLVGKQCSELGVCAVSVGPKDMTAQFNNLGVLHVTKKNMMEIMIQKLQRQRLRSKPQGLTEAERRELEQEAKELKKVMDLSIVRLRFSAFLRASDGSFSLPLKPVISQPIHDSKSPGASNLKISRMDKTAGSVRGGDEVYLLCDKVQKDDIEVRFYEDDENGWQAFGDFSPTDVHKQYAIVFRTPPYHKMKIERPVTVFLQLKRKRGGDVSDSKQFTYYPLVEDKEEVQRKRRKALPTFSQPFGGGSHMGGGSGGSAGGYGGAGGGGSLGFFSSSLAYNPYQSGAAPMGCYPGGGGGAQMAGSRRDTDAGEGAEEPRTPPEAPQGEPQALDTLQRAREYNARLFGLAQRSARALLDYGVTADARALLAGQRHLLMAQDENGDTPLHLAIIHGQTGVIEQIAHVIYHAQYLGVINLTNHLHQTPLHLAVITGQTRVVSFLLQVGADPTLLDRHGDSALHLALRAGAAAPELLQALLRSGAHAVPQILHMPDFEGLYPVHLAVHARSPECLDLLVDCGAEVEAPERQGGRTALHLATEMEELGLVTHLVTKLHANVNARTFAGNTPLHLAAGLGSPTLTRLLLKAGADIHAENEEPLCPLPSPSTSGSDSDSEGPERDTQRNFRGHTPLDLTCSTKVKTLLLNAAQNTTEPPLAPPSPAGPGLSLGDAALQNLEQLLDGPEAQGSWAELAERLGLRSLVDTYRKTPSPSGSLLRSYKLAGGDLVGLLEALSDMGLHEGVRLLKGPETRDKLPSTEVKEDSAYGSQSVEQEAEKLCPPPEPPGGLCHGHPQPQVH

For “endogenous ERK2 (from UniProt P63085 1-358) (natural protein)”, the percent of endogenous ERK2 pulled down with p100 (immunodepletion) was 46%.
